# Source: US12233115B2, “Long-acting parathyroid hormone” (Extend Biosciences, Inc., priority 2022, dated 2025)
# Several values for one entry are separate records, joined by “and”; a condition that tells them apart may be missing. Identical values can stand only once.
# How the values were obtained:
# [1] = system: Thyroparathyroidectomized (TPTx) rats; experiment: 28-day pharmacodynamic study in thyroparathyroidectomized (TPTx) rats; type: in vivo, rat; conditions: for % Increase in Serum Calcium, Cumulative: Days 1, 12, 27, relative to TPTx/vehicle; for increase in serum calcium compared to TPTx controls (in words): daily SC dosing (EXT607 1, 3, 10 nmol/kg; PTH peptides 10 nmol/kg); for decrease in serum phosphate (in words): daily SC dosing (EXT607 all dose levels; PTH peptides 10 nmol/kg), from Day 12
# Excerpt: 28-day Pharmacodynamic Study of EXT607 in TPTx Rats. Thyroparathyroidectomized (TPTx) rats are a model for hypoparathyroidism. To produce TPTx rats, the thyroid and parathyroid glands were surgically resected and the rats were given L-thyroxine to compensate for the loss of their thyroid. Due to the absence of PTH, TPTx rats had lower levels of serum calcium and higher levels of serum phosphate.
# Each group consisted of 10 female rats split into two cohorts of 5 animals for blood sampling purposes. On days 1, 12, and 27, blood (˜0.2 ml) was collected into serum separation tubes at t=0 (pre-dose), 2, 6, 10, and 24 h. The samples were processed into serum by standard methods and analyzed for serum total calcium and phosphate.
# Calcium levels at 3 and 10 nmol/kg (20 and 60 μg/kg) were at or just below the normal range of calcium levels for healthy animals. […] For each timepoint, the percent increase in serum calcium relative to the TPTx vehicle control group (Group 2) was determined and daily averages were calculated (Table 9B). Over the three days sampled (Days 1, 12, and 27), […] increased serum calcium an average of 17, 28, and 37% at 1, 3, and 10 nmol/kg, respectively.
# At each timepoint, the percent decrease in serum phosphate relative to the TPTx vehicle control group (Group 2) was determined, and daily averages were calculated (Table 9C).
# [2] = Single dose pharmacokinetics of EXT607 in male rats; conditions: in vivo, rat
# Method: In a single dose pharmacokinetic study, EXT607 was formulated in PBS and groups of male rats (n=3) were dosed at a volume of 1 ml/kg as follows: Group 1, 100 μg/kg intravenous; Group 2, 30 μg/kg subcutaneous; Group 3, 100 μg/kg subcutaneous; Group 4, 300 μg/kg subcutaneous. Blood (0.25 mL) was collected via the jugular vein cannula, transferred into tubes containing K2EDTA, and kept on wet ice until processed for plasma. Blood samples were collected at 0 (predose), 0.083 (IV only), 0.25, 0.5, 1, 2, 4, 6, 8, 12, 24, 36, 48, 60 and 72 h postdose.
# (§1) Pharmacokinetic parameters were determined from the plasma concentration versus time data (Table 4) by a non-compartmental analysis with uniform weighting using Phoenix® WinNonlin® Version 6.3 (Certara L.P. (Pharsight), St. Louis, MO). The concentration versus time data were analyzed using the IV bolus or extravascular administration models. Best fit Lambda z ranges were used.
# [3] = Single dose pharmacokinetics of EXT607 in male cynomolgus monkeys; type: in vivo; conditions: cynomolgus monkey
# Method: In a single dose pharmacokinetic study, EXT607 was formulated in PBS and groups of male cynomolgus monkeys (n=3), weighing approximately 4 kg each, were dosed at a volume of 1 ml/kg as follows: Group 1, 20 μg/kg intravenous; Group 2, 7 μg/kg subcutaneous; Group 3, 20 μg/kg subcutaneous; Group 4, 70 μg/kg subcutaneous. Blood (1.0 mL) was collected via the jugular vein cannula, transferred into tubes containing K2EDTA, and kept on wet ice until processed for plasma. Blood samples were collected at 0 (pre-dose), 0.083 (IV only), 0.25, 0.5, 1, 2, 4, 6, 8, 12, 24, 36, 48, 60 and 72 h post-dose.
# as §1, with “5)” for “4)”
# At low doses, the rate of subcutaneous absorption is slower than at high doses, leading to a lower Cmax and an overall flatter PK profile.
# [4] = 10 nmol/kg SC daily, Day 1, relative to TPTx/vehicle
# [5] = 10 nmol/kg SC daily, Day 12, relative to TPTx/vehicle
# [6] = 10 nmol/kg SC daily, Day 27, relative to TPTx/vehicle
# [7] = 7 μg/kg SC relative to 70 μg/kg SC
# [8] = 20 μg/kg SC relative to 70 μg/kg SC
# [9] = in vivo, 7 ug/kg, single 7 μg/kg SC
# [10] = in vivo, 20 ug/kg, single 20 μg/kg IV
# [11] = in vivo, 20 ug/kg, single 20 μg/kg SC
# [12] = in vivo, 70 ug/kg, single 70 μg/kg SC
molecule,measurement,setting,value
"CC[C@H](C)[C@H](NC(=O)[C@H](CCC(=O)O)NC(=O)[C@H](CO)NC(=O)[C@@H](NC(=O)[C@@H](N)CO)C(C)C)C(=O)N[C@@H](CCC(N)=O)C(=O)N[C@@H](CC(C)C)C(=O)N[C@@H](CCSC)C(=O)N[C@@H](Cc1c[nH]cn1)C(=O)N[C@@H](CC(N)=O)C(=O)N[C@@H](CC(C)C)C(=O)NCC(=O)N[C@@H](CCCCN)C(=O)N[C@@H](Cc1c[nH]cn1)C(=O)N[C@@H](CC(C)C)C(=O)N[C@@H](CC(N)=O)C(=O)N[C@@H](CO)C(=O)N[C@@H](CCSC)C(=O)N[C@@H](CCC(=O)O)C(=O)N[C@@H](CCCNC(=N)N)C(=O)N[C@H](C(=O)N[C@@H](CCC(=O)O)C(=O)N[C@@H](Cc1c[nH]c2ccccc12)C(=O)N[C@@H](CC(C)C)C(=O)N[C@@H](CCCNC(=N)N)C(=O)N[C@@H](CCCCN)C(=O)N[C@@H](CCCCN)C(=O)N[C@@H](CC(C)C)C(=O)N[C@@H](CCC(N)=O)C(=O)N[C@@H](CC(=O)O)C(=O)N[C@H](C(=O)N[C@@H](Cc1c[nH]cn1)C(=O)N[C@@H](CC(N)=O)C(=O)N[C@@H](Cc1ccccc1)C(=O)O)C(C)C)C(C)C [PTH(1-34), reference compound]","% Decrease in Serum Phosphate, Daily Average",[1]; [4],−1.7%
same,"% Increase in Serum Calcium, Daily Average",[1]; [4],8.0%
same,"% Decrease in Serum Phosphate, Daily Average",[1]; [5],9.1%
same,"% Increase in Serum Calcium, Daily Average",[1]; [5],12%
same,"% Decrease in Serum Phosphate, Daily Average",[1]; [6],13%
same,"% Increase in Serum Calcium, Daily Average",[1]; [6],6.4%
same,"% Increase in Serum Calcium, Cumulative",[1]; 10 nmol/kg SC daily,9% and 8.7%
same,increase in serum calcium compared to TPTx controls (in words),[1],minimal and did not reach statistical significance
same,decrease in serum phosphate (in words),[1],Occasional decreases
C=C1CC[C@H](OCCCNC(=O)CCOCCOCCOCCOCCOCCOCCOCCOCCOCCOCCOCCOCCOCCOCCOCCOCCOCCOCCOCCOCCOCCOCCOCCOCCOCCOCCOCCOCCOCCOCCOCCOCCOCCOCCOCCOCCNC(=O)CCN2C(=O)CC(SC[C@H](NC(=O)[C@H](Cc3ccccc3)NC(=O)[C@H](CC(N)=O)NC(=O)[C@H](Cc3c[nH]cn3)NC(=O)[C@@H](NC(=O)[C@H](CC(=O)O)NC(=O)[C@H](CCC(N)=O)NC(=O)[C@H](CC(C)C)NC(=O)[C@H](CCCCN)NC(=O)[C@H](CCCCN)NC(=O)[C@H](CCCNC(=N)N)NC(=O)[C@H](CC(C)C)NC(=O)[C@H](Cc3c[nH]c4ccccc34)NC(=O)[C@H](CCC(=O)O)NC(=O)[C@@H](NC(=O)[C@H](CCCNC(=N)N)NC(=O)[C@H](CCC(=O)O)NC(=O)[C@H](CCSC)NC(=O)[C@H](CO)NC(=O)[C@H](CC(N)=O)NC(=O)[C@H](CC(C)C)NC(=O)[C@H](Cc3c[nH]cn3)NC(=O)[C@H](CCCCN)NC(=O)CNC(=O)[C@H](CC(C)C)NC(=O)[C@H](CC(N)=O)NC(=O)[C@H](Cc3c[nH]cn3)NC(=O)[C@H](CCSC)NC(=O)[C@H](CC(C)C)NC(=O)[C@H](CCC(N)=O)NC(=O)[C@@H](NC(=O)[C@H](CCC(=O)O)NC(=O)[C@H](CO)NC(=O)[C@@H](NC(=O)[C@@H](N)CO)C(C)C)[C@@H](C)CC)C(C)C)C(C)C)C(=O)O)C2=O)C/C1=C/C=C1\CCC[C@]2(C)[C@@H]([C@H](C)CCCC(C)(C)O)CC[C@@H]12 (some centres unmarked) [EXT607],AUC(0-inf),"[2]; 30 ug/kg, single 30 μg/kg SC",186 ng·h/mL
same,MRT,"[2]; 30 ug/kg, single 30 μg/kg SC",15.9 h
same,bioavailability,"[2]; 30 ug/kg, single 30 μg/kg SC, read-out: Bioavailability",12.9%
same,AUC(0-inf),"[2]; 100 ug/kg, single 100 μg/kg IV",4390 ng·h/mL
same,C0,"[2]; 100 ug/kg, single 100 μg/kg IV",2860 ng/mL
same,MRT,"[2]; 100 ug/kg, single 100 μg/kg IV",3.49 h
same,Vd,"[2]; 100 ug/kg, single 100 μg/kg IV, read-out: VZ",0.304 L/kg
same,AUC(0-inf),"[2]; 100 ug/kg, single 100 μg/kg SC",472 ng·h/mL
same,MRT,"[2]; 100 ug/kg, single 100 μg/kg SC",13.7 h
same,bioavailability,"[2]; 100 ug/kg, single 100 μg/kg SC, read-out: Bioavailability",10.7%
same,half-life,"[2]; 300 ug/kg, SC 30, 100 or 300 μg/kg, read-out: half-life",7 to 15 h
same,AUC(0-inf),"[2]; 300 ug/kg, single 300 μg/kg SC",1290 ng·h/mL
same,MRT,"[2]; 300 ug/kg, single 300 μg/kg SC",13.6 h
same,bioavailability,"[2]; 300 ug/kg, single 300 μg/kg SC, read-out: Bioavailability",9.67%
same,half-life,"[2]; sc, rats, after subcutaneous dosing, read-out: terminal half-life",8 to 15 h
same,bioavailability,"[2]; male rats, based on AUC vs intravenous injection, across SC doses, read-out: subcutaneous bioavailability (% F)",10 to 13%
same,dose-adjusted AUC ratio,[3]; [7],0.95
same,dose-adjusted Cmax ratio,[3]; [7],0.28
same,dose-adjusted AUC ratio,[3]; [8],0.85
same,dose-adjusted Cmax ratio,[3]; [8],0.55
same,dose-adjusted AUC ratio,[3]; 70 μg/kg SC (reference),1.00
same,dose-adjusted Cmax ratio,[3]; 70 μg/kg SC (reference),1.00
same,half-life,"[3]; in vivo, sc, NHP, after subcutaneous dosing, read-out: terminal half-life",24 to 32 h
same,AUC(0-inf),[3]; [9],483 ng·h/mL
same,MRT,[3]; [9],29.5 h
same,half-life,"[3]; in vivo, 7 ug/kg, single 7 μg/kg SC, read-out: t1/2 (converted)",24 h
same,AUC(0-inf),[3]; [10],2850 ng·h/mL
same,C0,[3]; [10],782 ng/mL
same,MRT,[3]; [10],11.2 h
same,Vd,"[3]; in vivo, 20 ug/kg, single 20 μg/kg IV, read-out: VZ",0.34 L/kg
same,half-life,"[3]; in vivo, 20 ug/kg, single 20 μg/kg IV, read-out: t1/2 (converted)",32.3 h
same,AUC(0-inf),[3]; [11],1290 ng·h/mL
same,AUC(0-t),[3]; [11],1160 ng·h/mL
same,MRT,[3]; [11],23.3 h
same,half-life,"[3]; in vivo, 20 ug/kg, single 20 μg/kg SC, read-out: t1/2 (converted)",24.3 h
same,AUC(0-inf),[3]; [12],5300 ng·h/mL
same,MRT,[3]; [12],17.5 h
same,half-life,"[3]; in vivo, 70 ug/kg, single 70 μg/kg SC, read-out: t1/2 (converted)",27.7 h
same,bioavailability,"[3]; in vivo, across SC doses, read-out: bioavailability when delivered subcutaneously",45 to 54%
same,half-life,"[3]; in vivo, across doses, read-out: t1/2 of elimination",24 to 32 h
"PTH(1-84): wild-type full-length parathyroid hormone, 84 amino acids, SEQ ID NO: 2 (protein, UniProt P01270 32-115, looked up, Parathyroid hormone) Parathyroid hormone: SVSEIQLMHNLGKHLNSMERVEWLRKKLQDVHNFVALGAPLAPRDAGSQRPRKKEDNVLVESHEKSLGEADKADVNVLTKAKSQ","% Decrease in Serum Phosphate, Daily Average",[1]; [4],0.2%
same,"% Increase in Serum Calcium, Daily Average",[1]; [4],7.0%
same,"% Decrease in Serum Phosphate, Daily Average",[1]; [5],17%
same,"% Increase in Serum Calcium, Daily Average",[1]; [5],14%
same,"% Decrease in Serum Phosphate, Daily Average",[1]; [6],17%
same,"% Increase in Serum Calcium, Daily Average",[1]; [6],4.1%
same,"% Increase in Serum Calcium, Cumulative",[1]; 10 nmol/kg SC daily,9% and 8.5%
same,"% Decrease in Serum Phosphate, Combined","[1]; 10 nmol/kg SC daily, Days 12, 27, relative to TPTx/vehicle",17%
same,increase in serum calcium compared to TPTx controls (in words),[1],minimal and did not reach statistical significance with the exception of two isolated timepoints
same,decrease in serum phosphate (in words),[1],Slight decreases
